Where two headings read alike, the source gives them in different places.
Experiments:
SEC-MALS = target: the molecule itself; assay: SEC-MALS
[1] = target: T1, ERα DB domain (DNA-binding domain) (human, UniProt P03372 176-250); assay: ITC
[2] = target: T1, ERα DB domain (DNA-binding domain); assay: ITC; remark: listed apart in the source

Row | Binder | stoichiometry N (SEC-MALS) | Kd [1] | Kd [2]
1 | DB domain of ERα pre-treated with EDTA to strip divalent zinc ions (metal-free DB domain) (domain or fragment, human, UniProt P03372 176-250, looked up) MESAKETRYCAVCNDYASGYHYGVWSCEGCKAFFKRSIQGHNDYMCPATNQCTIDKNRRKSCQACRLRKCYEVGM | 2 |  | 
2 | DB domain of ERα reconstituted with divalent ions of zinc (domain or fragment, human, UniProt P03372 176-250, looked up) MESAKETRYCAVCNDYASGYHYGVWSCEGCKAFFKRSIQGHNDYMCPATNQCTIDKNRRKSCQACRLRKCYEVGM | 2 |  | 
3 | DB domain of ERα reconstituted with divalent ions of cadmium (domain or fragment, human, UniProt P03372 176-250, looked up) MESAKETRYCAVCNDYASGYHYGVWSCEGCKAFFKRSIQGHNDYMCPATNQCTIDKNRRKSCQACRLRKCYEVGM | 2 |  | 
4 | DB domain of ERα reconstituted with divalent ions of mercury (domain or fragment, human, UniProt P03372 176-250, looked up) MESAKETRYCAVCNDYASGYHYGVWSCEGCKAFFKRSIQGHNDYMCPATNQCTIDKNRRKSCQACRLRKCYEVGM | 2 |  | 
5 | DB domain of ERα reconstituted with divalent ions of cobalt (domain or fragment, human, UniProt P03372 176-250, looked up) MESAKETRYCAVCNDYASGYHYGVWSCEGCKAFFKRSIQGHNDYMCPATNQCTIDKNRRKSCQACRLRKCYEVGM | 2 |  | 
6 | ERE duplex (dsDNA) DNA 1: CCCAGGTCACAGTGACCTGCG DNA 2: CGCAGGTCACTGTGACCTGGG |  | 81 ± 2 nM | 68 ± 8 nM

Source: article PMC3205435 (Journal of molecular recognition : JMR, 2011)
